Laboratory results from patent publication US7625733B2, “Isolation of quiescin-sulfhydryl oxidase from milk” (University of Delaware, priority 2007, dated 2009).
Like-named read-outs stand apart in the source and are kept apart here.

Legend:
[1] = Oxygen electrode assay, oxidation of dithiothreitol by QSOX1; assay type: biochemical; conditions: substrate DTT, 25° C., 50 mM phosphate buffer, pH 7.5, 1 mM EDTA
Experimental: (§1) Oxygen electrode assays were performed in duplicate at 25° C. as described in K. L. Hoober, et al., J. Biol. Chem. 271: 30510-30516, 1996. Assays were initiated by the addition of 5 mM DTT or reduced glutathione (GSH). All thiol substrates were standardized with DTNB before use. Reduced RNase was prepared, characterized and stored as described in K. L. Hoober, et al., J. Biol. Chem. 271: 30510-30516, 1996. Assays of the oxidation of reduced RNase were performed as described by K. L. Hoober et al., J. Biol. Chem. 274: 22147-22150.

[2] = Oxygen electrode assay, oxidation of reduced glutathione by QSOX1; assay type: biochemical; conditions: substrate GSH, 25° C., 50 mM phosphate buffer, pH 7.5, 1 mM EDTA
Experimental: as §1

reduced RNase (rRNase) [3] = experiment: Oxidation of reduced RNase by QSOX1; assay type: biochemical
Experimental: as §1

[4] = Stimulation of sulfhydryl oxidase activity by added ferrous iron; assay type: biochemical; conditions: purified QSOX1 from milk
[5] = Inhibition of sulfhydryl oxidase activity by EDTA; assay type: biochemical; conditions: purified QSOX1 from milk
[6] = substrate DTT, data from Hoober et al. 1999, cited from earlier work
[7] = substrate GSH, data from Hoober et al. 1999, cited from earlier work
reduced RNase (rRNase) [8] = conditions: substrate rRNase, data from Hoober et al. 1999, cited from earlier work

Molecule | Km [1] | kcat ([1]; thiols oxidized per minute) | Km [2] | kcat ([2]; thiols oxidized per minute) | catalytic efficiency relative to egg white QSOX1 (reduced RNase (rRNase) [3]; oxidation of reduced pancreatic RNase) | Km (reduced RNase (rRNase) [3]; substrate rRNase, 25° C., 50 mM phosphate buffer, pH 7.5, 1 mM EDTA) | kcat (reduced RNase (rRNase) [3]; substrate rRNase, 25° C., 50 mM phosphate buffer, pH 7.5, 1 mM EDTA, thiols oxidized per minute) | Is activity stimulated by added Ferrous iron? [4] | Is EDTA inhibitory? [5] | Km [6] | kcat ([6]; thiols oxidized per minute) | Km [7] | kcat ([7]; thiols oxidized per minute) | Km (reduced RNase (rRNase) [8]) | kcat (reduced RNase (rRNase) [8]; thiols oxidized per minute)
Milk QSOX1: Flavin-dependent quiescin Q6 sulfhydryl oxidase 1 isolated and purified from bovine milk, amino acid sequence SEQ ID NO:1 (protein, listed as Bos taurus) SALYSSSDPLTLLRADTVRSTVLGSSSAWAVEFFASWCGHCIAFAPTWKALANDVKDWRPALNLAALDCAEETNSAVCRDFNIPGFPTVRFFKAFSKTGSGTTLSVAGADVQTLRERLIDALESHSDTWPPACPPLEPARLEEITGFFARNNEEYLALIFEKEGSYLGREVTLDLSQHQGIAVRRVLNTERDVVNRFGVTNFPSCYLLSRNGSFSRVPALTESRSFYTTYLRKFSGSTRGAVQTTAAPATTSAVAPTVWKVADRSKIYMADLESALHYILRIEVGKFSVLEGQRLVALKKFMAVLAKYFRGRPLVQNFLHSMNDWLKKQQRKKIPYGFFKNALDSRKEGTVIAEKVNWVGCQGSEPHFRGFPCSLWILFHFLTVQAAQEGVDHPQERAKAQEVLQAIRGYVRFFFGCRECAGHFEQMASGSMHRVGSLNSAVLWFWSSHNKVNARLAGAPSEDPQFPKVQWPPRELCSACHNELRGTPVWDLDNILKFLKTHFSPSNIVLDFPSAGPGPWR | 86 µM | 31.33 s⁻¹ | 4900 µM | 29.33 s⁻¹ | two-fold higher | 60 µM | 22.33 s⁻¹ | No | No |  |  |  |  |  | 
Egg QSOX1: Avian QSOX1 isolated from egg white; data from Hoober et al. 1999 (protein, UniProt Q8JGM4 43-743, looked up) Sulfhydryl oxidase 1: RSLYSPSDPLELLGADTAERRLLGSPSAWAVEFFASWCGHCIHFAPTWRALAEDVREWRPAVMIAALDCADEANQQVCADFGITGFPTLKFFRAFSKKAEDGIRIAHPTATVADLRRAIITNLEQSGDAWPPACPPLEPASAEEVRSFFHRNTERYLALIFEQSNSFVGREVALDLLQYENVAVRRVLSSEEELVEKFGVTTFPSAYLLLRNGSFSRLPVHAEARSFYTYYLQTLSGVTRGSYRLNVTGSAINETRALQPAQADRSKVYVADLESTVHYTLRVEAGRPAVLAGAQLAALKCYVATLAKYFPGRPSVQTFLQSLDSWLRNWTEPELPRSALKEAVKNKEDASPAAVLPTNVTWVGCRGSEPHFRGYPCGLWTIFHLLTVQAAQGGPDEELPLEVLNTMRCYVKHFFGCQECAQHFEAMAAKSMDQVKSRREAVLWLWSHHNEVNARLAGGDTEDPQFPKLQWPPPDMCPQCHREERGVHTWDEAAVLSFLKEHFSLGNLYLDHAIPIPMAGEEAAASARLSTAGLREKEEEERKEEEEEGEKETEKPHREGETGRPGSSELRRPSIVRRNPRLRALGEDIVDLDSFSEQHFKSKALRAAGRHRRLSKRDTVALHHDAGWERLQVPESREEEEEGGVLRRSPWLRVLGLGFSRLDVSLCIALYFLSSMCLLGMYTFFRLRTRARKGRPGFPVA |  |  |  |  |  |  |  |  |  | 150 µM | 34.33 s⁻¹ | 20000 µM | 46.33 s⁻¹ | 115 µM | 20.33 s⁻¹
